This passage reports protein stability index results from the supplement of paper PMC10567573.

Sequences and labels used below:
B1: PTPRD (parent)
chain: FICQATGDPRPKIVWNKKGKKVSN
B2: PWWP2B (parent)
chain: TIRLRPRQVLCEKCKSTLSPPEAS
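Further: lentivirally expressed fusions sorted by FACS into six bins by GFP to DsRed ratio, PSI derived from sequencing read proportions per bin multiplied by bin number.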

Variants of B1 are the subject of one data set. In words: protein stability index of a GFP-peptide fusion (GPS, HEK-293T) (PSI 1-6); higher = more stable. The following applies: c terminus: a fixed tail appended.
For FICQATGDPRPKIVWNKKGKKVSY [N24Y], the protein stability index amounted to 2.08.

A further data set covers variants of B2. Described as above. The conditions noted are these: c terminus: a fixed tail appended.
As to TIRLRPRPVLCEKCKSTLSPPEAS [Q8P], the protein stability index worked out at 3.06.

In the case of TIRLRPRCVLCEKCKSTLSPPEAS [Q8C], the protein stability index worked out at 2.09.

In the case of TIRLRPRRVLCEKCKSTLSPPEAS [Q8R], the protein stability index was 2.95.

Take TIRLRPRAVLCEKCKSTLSPPEAS [Q8A]: the protein stability index worked out at 2.85.

For the variant TIRLRPRKVLCEKCKSTLSPPEAS [Q8K], the protein stability index was 2.99.

On to TIRLRPRGVLCEKCKSTLSPPEAS [Q8G], for which the protein stability index was found to be 2.96.

For TIRLRPRIVLCEKCKSTLSPPEAS [Q8I], the protein stability index is 2.64.

Regarding TIRLRPRWVLCEKCKSTLSPPEAS [Q8W], the protein stability index amounted to 2.19.

As to TIRLRPRFVLCEKCKSTLSPPEAS [Q8F], the protein stability index came out at 2.24.

Consider TIRLRPRSVLCEKCKSTLSPPEAS [Q8S], for which the protein stability index was determined as 3.05.

Take TIRLRPRNVLCEKCKSTLSPPEAS [Q8N]: the protein stability index was determined as 2.97.

Consider TIRLRPRVVLCEKCKSTLSPPEAS [Q8V], for which the protein stability index came to 2.35.

For the variant TIRLRPRYVLCEKCKSTLSPPEAS [Q8Y], the protein stability index is 2.74.

Regarding TIRLRPREVLCEKCKSTLSPPEAS [Q8E], the protein stability index was 3.33.

For the variant TIRLRPRLVLCEKCKSTLSPPEAS [Q8L], the protein stability index was found to be 2.58.

On to TIRLRPRHVLCEKCKSTLSPPEAS [Q8H], for which the protein stability index turned out to be 2.77.

With TIRLRPRTVLCEKCKSTLSPPEAS [Q8T], the protein stability index came out at 2.76.

On to TIRLRPRMVLCEKCKSTLSPPEAS [Q8M], for which the protein stability index amounted to 2.92.

In the case of TIRLRPRDVLCEKCKSTLSPPEAS [Q8D], the protein stability index is 3.49.

TIRLRPRQQLCEKCKSTLSPPEAS [V9Q]: the protein stability index came out at 3.31.

For TIRLRPRQILCEKCKSTLSPPEAS [V9I], the protein stability index came out at 3.

For the variant TIRLRPRQDLCEKCKSTLSPPEAS [V9D], the protein stability index worked out at 3.19.

TIRLRPRQELCEKCKSTLSPPEAS [V9E]: the protein stability index was 3.35.

Turning to TIRLRPRQRLCEKCKSTLSPPEAS [V9R], the protein stability index came out at 2.94.

Regarding TIRLRPRQMLCEKCKSTLSPPEAS [V9M], the protein stability index amounted to 2.73.

In the case of TIRLRPRQTLCEKCKSTLSPPEAS [V9T], the protein stability index turned out to be 3.33.

For TIRLRPRQGLCEKCKSTLSPPEAS [V9G], the protein stability index was 2.64.

With TIRLRPRQYLCEKCKSTLSPPEAS [V9Y], the protein stability index stood at 2.54.

For the variant TIRLRPRQFLCEKCKSTLSPPEAS [V9F], the protein stability index worked out at 2.72.

As to TIRLRPRQWLCEKCKSTLSPPEAS [V9W], the protein stability index was 2.24.

Turning to TIRLRPRQHLCEKCKSTLSPPEAS [V9H], the protein stability index came out at 2.97.

In the case of TIRLRPRQCLCEKCKSTLSPPEAS [V9C], the protein stability index came out at 3.42.

Consider TIRLRPRQKLCEKCKSTLSPPEAS [V9K], for which the protein stability index was found to be 2.85.

As to TIRLRPRQLLCEKCKSTLSPPEAS [V9L], the protein stability index is 2.37.

Regarding TIRLRPRQNLCEKCKSTLSPPEAS [V9N], the protein stability index was determined as 3.58.

For the variant TIRLRPRQPLCEKCKSTLSPPEAS [V9P], the protein stability index was found to be 3.13.

In the case of TIRLRPRQSLCEKCKSTLSPPEAS [V9S], the protein stability index is 3.16.

Take TIRLRPRQALCEKCKSTLSPPEAS [V9A]: the protein stability index is 3.61.

Consider TIALRPRQVLCEKCKSTLSPPEAS [R3A], for which the protein stability index came to 3.69.

Consider TINLRPRQVLCEKCKSTLSPPEAS [R3N], for which the protein stability index is 3.8.

Turning to TISLRPRQVLCEKCKSTLSPPEAS [R3S], the protein stability index was determined as 3.37.

Consider TIQLRPRQVLCEKCKSTLSPPEAS [R3Q], for which the protein stability index amounted to 3.61.

In the case of TIHLRPRQVLCEKCKSTLSPPEAS [R3H], the protein stability index was found to be 3.09.

For TIPLRPRQVLCEKCKSTLSPPEAS [R3P], the protein stability index worked out at 3.81.

Take TIDLRPRQVLCEKCKSTLSPPEAS [R3D]: the protein stability index is 3.82.

Consider TIFLRPRQVLCEKCKSTLSPPEAS [R3F], for which the protein stability index was 2.02.

As for TITLRPRQVLCEKCKSTLSPPEAS [R3T], the protein stability index was 3.27.

Consider TILLRPRQVLCEKCKSTLSPPEAS [R3L], for which the protein stability index is 2.71.

As for TIWLRPRQVLCEKCKSTLSPPEAS [R3W], the protein stability index is 2.98.

Regarding TICLRPRQVLCEKCKSTLSPPEAS [R3C], the protein stability index amounted to 2.61.

TIELRPRQVLCEKCKSTLSPPEAS [R3E]: the protein stability index came out at 4.37.

In the case of TIKLRPRQVLCEKCKSTLSPPEAS [R3K], the protein stability index was determined as 3.99.

For the variant TIMLRPRQVLCEKCKSTLSPPEAS [R3M], the protein stability index amounted to 3.14.

Consider TIYLRPRQVLCEKCKSTLSPPEAS [R3Y], for which the protein stability index stood at 2.82.

For the variant TIVLRPRQVLCEKCKSTLSPPEAS [R3V], the protein stability index worked out at 2.7.

TIGLRPRQVLCEKCKSTLSPPEAS [R3G]: the protein stability index was found to be 3.09.

Turning to TIILRPRQVLCEKCKSTLSPPEAS [R3I], the protein stability index was 3.04.

On to TIRLRARQVLCEKCKSTLSPPEAS [P6A], for which the protein stability index is 2.76.

For TIRLRVRQVLCEKCKSTLSPPEAS [P6V], the protein stability index worked out at 2.19.

Turning to TIRLRLRQVLCEKCKSTLSPPEAS [P6L], the protein stability index was 2.04.

In the case of TIRLRCRQVLCEKCKSTLSPPEAS [P6C], the protein stability index was 2.46.

As to TIRLRERQVLCEKCKSTLSPPEAS [P6E], the protein stability index is 3.8.

TIRLRNRQVLCEKCKSTLSPPEAS [P6N]: the protein stability index was 2.53.

Take TIRLRYRQVLCEKCKSTLSPPEAS [P6Y]: the protein stability index was 2.04.

TIRLRGRQVLCEKCKSTLSPPEAS [P6G]: the protein stability index turned out to be 3.25.

Take TIRLRHRQVLCEKCKSTLSPPEAS [P6H]: the protein stability index came out at 2.77.

With TIRLRDRQVLCEKCKSTLSPPEAS [P6D], the protein stability index is 3.61.

With TIRLRMRQVLCEKCKSTLSPPEAS [P6M], the protein stability index stood at 2.37.

For the variant TIRLRQRQVLCEKCKSTLSPPEAS [P6Q], the protein stability index amounted to 3.02.

As to TIRLRTRQVLCEKCKSTLSPPEAS [P6T], the protein stability index amounted to 3.09.

Consider TIRLRWRQVLCEKCKSTLSPPEAS [P6W], for which the protein stability index is 2.05.

Regarding TIRLRRRQVLCEKCKSTLSPPEAS [P6R], the protein stability index stood at 2.52.

With TIRLRSRQVLCEKCKSTLSPPEAS [P6S], the protein stability index is 3.1.

As to TIRLRKRQVLCEKCKSTLSPPEAS [P6K], the protein stability index amounted to 2.82.

In the case of TIRLRIRQVLCEKCKSTLSPPEAS [P6I], the protein stability index is 1.62.

Regarding TIRLRFRQVLCEKCKSTLSPPEAS [P6F], the protein stability index is 2.05.

In the case of TIRSRPRQVLCEKCKSTLSPPEAS [L4S], the protein stability index came out at 3.6.

TIRYRPRQVLCEKCKSTLSPPEAS [L4Y]: the protein stability index was 2.87.

With TIRRRPRQVLCEKCKSTLSPPEAS [L4R], the protein stability index came out at 3.03.

Turning to TIRPRPRQVLCEKCKSTLSPPEAS [L4P], the protein stability index came out at 3.45.

For TIRCRPRQVLCEKCKSTLSPPEAS [L4C], the protein stability index turned out to be 3.45.

Turning to TIRIRPRQVLCEKCKSTLSPPEAS [L4I], the protein stability index came out at 2.79.

With TIRVRPRQVLCEKCKSTLSPPEAS [L4V], the protein stability index is 3.22.

For TIRERPRQVLCEKCKSTLSPPEAS [L4E], the protein stability index turned out to be 3.79.

As to TIRMRPRQVLCEKCKSTLSPPEAS [L4M], the protein stability index worked out at 3.32.

In the case of TIRGRPRQVLCEKCKSTLSPPEAS [L4G], the protein stability index was found to be 3.63.

In the case of TIRNRPRQVLCEKCKSTLSPPEAS [L4N], the protein stability index is 3.58.

For TIRHRPRQVLCEKCKSTLSPPEAS [L4H], the protein stability index was determined as 3.23.

TIRWRPRQVLCEKCKSTLSPPEAS [L4W]: the protein stability index was found to be 2.31.

Take TIRTRPRQVLCEKCKSTLSPPEAS [L4T]: the protein stability index is 3.85.

For TIRKRPRQVLCEKCKSTLSPPEAS [L4K], the protein stability index is 3.58.

Consider TIRFRPRQVLCEKCKSTLSPPEAS [L4F], for which the protein stability index turned out to be 2.77.

In the case of TIRARPRQVLCEKCKSTLSPPEAS [L4A], the protein stability index is 2.99.
